Experimental data: paper PMC3821027
pKd: −log10 of the molar value. Like-named read-outs stand apart in the source and are kept apart here.

Tests used:
[1] = system: rCTS (TRX-L1 ORF2p CTS, wild type) (Homo sapiens (LRE1 / L1.2 element, pSM42)); experiment: EMSA
[2] = system: rCTS (TRX-L1 ORF2p CTS, wild type) (Homo sapiens (LRE1 / L1.2 element, pSM42)); experiment: EMSA; remark: listed apart in the source

380 nt L1 3'UTR RNA
pKd [1]: 7.20 | pKd [2]: 7.24
